Results reported in the Immune Epitope Database (IEDB).
Values belong to the sequence of their own block, whether it stands above or below them.

Assays:
HLA-B*15:17 = experiment: IEDB peptide-MHC binding, purified MHC/competitive/fluorescence; filed as Kd, often an IC50 or EC50 that approximates it; ≥ and ≤ were set here for values at or beyond the usual limits of such assays
HLA-A*29:02 = experiment: as above
HLA-A*26:01 = experiment: as above
HLA-B*39:01 = experiment: as above
HLA-A*02:19 = experiment: as above
HLA-B*15:01 = experiment: as above
HLA-B*18:01 = experiment: as above
HLA-A*24:03 [1] = experiment: as above
HLA-A*02:03 = experiment: as above
HLA-B*51:01 = experiment: as above
HLA-B*57:01 = experiment: as above
HLA-B*27:03 = experiment: as above
HLA-A*69:01 = experiment: as above
HLA-A*68:02 = experiment: as above
HLA-B*46:01 = experiment: as above
HLA-A*03:01 = experiment: as above
HLA-A*02:16 = experiment: as above
HLA-A*02:11 = experiment: as above
HLA-A*02:01 = experiment: as above
HLA-A*02:12 = experiment: as above
HLA-A*23:01 = experiment: as above
HLA-A*31:01 = experiment: as above; conditions: source organism: Escherichia coli E110019
HLA-A*24:03 [2] = experiment: IEDB peptide-MHC binding, purified MHC/direct/fluorescence; filed as Kd, often an IC50 or EC50 that approximates it; ≥ and ≤ were set here for values at or beyond the usual limits of such assays; conditions: source organism: Bacillus anthracis
HLA-C*04:01 = experiment: as above
HLA-C*05:01 = experiment: as above
HLA-C*06:02 [3] = experiment: as above; conditions: source organism: SARS-CoV1
HLA-A*02:06 = experiment: IEDB peptide-MHC binding, purified MHC/competitive/fluorescence; filed as Kd, often an IC50 or EC50 that approximates it; ≥ and ≤ were set here for values at or beyond the usual limits of such assays; conditions: source organism: Brucella suis 1330
HLA-B*15:42 = experiment: as above
HLA-B*83:01 = experiment: as above
HLA-B*27:20 = experiment: as above
HLA-B*45:06 = experiment: as above
HLA-A*32:07 = experiment: as above
HLA-B*40:13 = experiment: as above
HLA-C*12:03 = experiment: IEDB peptide-MHC binding, purified MHC/direct/fluorescence; filed as Kd, often an IC50 or EC50 that approximates it; ≥ and ≤ were set here for values at or beyond the usual limits of such assays
HLA-C*03:03 = experiment: as above
HLA-C*14:02 = experiment: IEDB peptide-MHC binding, purified MHC/competitive/fluorescence; filed as Kd, often an IC50 or EC50 that approximates it; ≥ and ≤ were set here for values at or beyond the usual limits of such assays
HLA-C*08:02 = experiment: IEDB peptide-MHC binding, purified MHC/direct/fluorescence; filed as Kd, often an IC50 or EC50 that approximates it; ≥ and ≤ were set here for values at or beyond the usual limits of such assays; conditions: source organism: Yersinia pestis CO92
HLA-C*07:02 = experiment: as above; conditions: source organism: Yersinia pestis CO92
HLA-A*68:23 = experiment: IEDB peptide-MHC binding, purified MHC/competitive/fluorescence; filed as Kd, often an IC50 or EC50 that approximates it; ≥ and ≤ were set here for values at or beyond the usual limits of such assays; conditions: source organism: Yersinia pestis CO92
HLA-C*06:02 [4] = experiment: as above; conditions: source organism: Yersinia pestis CO92
HLA-A*32:15 = experiment: as above; conditions: source organism: Yersinia pestis CO92
HLA-B*35:01 = experiment: as above; conditions: source organism: Yersinia pestis Nepal516
[5] = source organism: Giardia lamblia ATCC 50803
[6] = source organism: Escherichia coli E110019
[7] = source organism: Vaccinia virus
[8] = source organism: Brucella suis 1330
[9] = source organism: Mycobacterium tuberculosis F11
[10] = source organism: Yersinia pestis CO92
[11] = source organism: Vibrio cholerae MAK 757
[12] = source organism: Yersinia pestis Nepal516

Sequence: ALGGSCHTT
Kd (HLA-B*15:17; [5]): ≥ 20 µM
Kd (HLA-A*29:02; [5]): ≥ 20 µM
Kd (HLA-A*26:01; [5]): ≥ 20 µM
Kd (HLA-B*39:01; [5]): ≥ 20 µM
Kd (HLA-A*02:19; [5]): 0.555 µM
Kd (HLA-B*15:01; [5]): ≥ 20 µM
Kd (HLA-B*18:01; [5]): ≥ 20 µM
Kd (HLA-A*24:03 [1]; [5]): ≥ 20 µM
Kd (HLA-A*02:03; [5]): ≥ 20 µM
Kd (HLA-B*51:01; [5]): ≥ 20 µM
Kd (HLA-B*57:01; [5]): ≥ 20 µM
Kd (HLA-B*27:03; [5]): ≥ 20 µM
Kd (HLA-A*69:01; [5]): ≥ 20 µM
Kd (HLA-A*68:02; [5]): ≥ 20 µM
Kd (HLA-B*46:01; [5]): ≥ 20 µM
Kd (HLA-A*03:01; [5]): ≥ 20 µM
Kd (HLA-A*02:16; [5]): ≥ 20 µM
Kd (HLA-A*02:11; [5]): ≥ 20 µM
Kd (HLA-A*02:01; [5]): ≥ 20 µM
Kd (HLA-A*02:12; [5]): ≥ 20 µM

Kd (HLA-A*26:01; [6]): ≥ 20 µM
Kd (HLA-B*39:01; [6]): ≥ 20 µM
Kd (HLA-A*23:01; [6]): ≥ 20 µM
Kd (HLA-A*02:19; [6]): ≥ 20 µM
Kd (HLA-B*15:01; [6]): ≥ 20 µM
Kd (HLA-B*18:01; [6]): ≥ 20 µM
Kd (HLA-A*24:03 [1]; [6]): ≥ 20 µM
Kd (HLA-A*02:03; [6]): ≥ 20 µM
Kd (HLA-B*51:01; [6]): ≥ 20 µM
Kd (HLA-B*57:01; [6]): ≥ 20 µM
Kd (HLA-A*69:01; [6]): ≥ 20 µM
Kd (HLA-A*68:02; [6]): ≥ 20 µM
Kd (HLA-B*46:01; [6]): ≥ 20 µM
Kd (HLA-A*31:01): 0.0027 µM
Kd (HLA-A*02:16; [6]): ≥ 20 µM
Kd (HLA-A*02:11; [6]): ≥ 20 µM
Kd (HLA-A*02:01; [6]): ≥ 20 µM
Kd (HLA-A*02:12; [6]): ≥ 20 µM
Sequence: RAFWGQVQK

Sequence: AYPKWKFFL
Kd (HLA-A*24:03 [2]): 0.0017 µM
Kd (HLA-C*04:01; source organism: Bacillus anthracis str. CDC 684): ≥ 20 µM

Sequence: FVDVIIIKV
Kd (HLA-C*05:01; [7]): ≥ 20 µM
Kd (HLA-C*04:01; [7]): ≥ 20 µM

Sequence: SYCNGVREL
Kd (HLA-C*06:02 [3]): 0.133 µM
Kd (HLA-C*04:01; source organism: SARS-CoV1): ≥ 20 µM

Kd (HLA-B*15:17; source organism: Homo sapiens): ≥ 20 µM
Kd (HLA-A*29:02; source organism: Homo sapiens): ≥ 20 µM
Kd (HLA-A*26:01; source organism: Homo sapiens): ≥ 20 µM
Kd (HLA-A*23:01; source organism: Homo sapiens): ≥ 20 µM
Kd (HLA-A*02:19; source organism: Homo sapiens): ≥ 20 µM
Kd (HLA-B*18:01; source organism: Homo sapiens): ≥ 20 µM
Kd (HLA-A*24:03 [1]; source organism: Homo sapiens): ≥ 20 µM
Kd (HLA-A*02:03; source organism: Homo sapiens): ≥ 20 µM
Kd (HLA-B*51:01; source organism: Homo sapiens): ≥ 20 µM
Kd (HLA-B*57:01; source organism: Homo sapiens): ≥ 20 µM
Kd (HLA-B*27:03; source organism: Homo sapiens): ≥ 20 µM
Kd (HLA-A*69:01; source organism: Homo sapiens): ≥ 20 µM
Kd (HLA-B*46:01; source organism: Homo sapiens): ≥ 20 µM
Kd (HLA-A*03:01; source organism: Homo sapiens): ≥ 20 µM
Kd (HLA-A*02:16; source organism: Homo sapiens): ≥ 20 µM
Kd (HLA-A*02:01; source organism: Homo sapiens): 0.0306 µM
Kd (HLA-A*02:12; source organism: Homo sapiens): 0.17 µM
Sequence: SQLPPACPV

Sequence: RQNAPFEPI
Kd (HLA-A*02:06): 0.0012 µM
Kd (HLA-B*15:42; [8]): ≥ 5 µM
Kd (HLA-B*83:01; [8]): ≥ 5 µM
Kd (HLA-B*27:20; [8]): 0.0011 µM
Kd (HLA-B*45:06; [8]): ≥ 5 µM
Kd (HLA-A*02:01; [8]): 0.0834 µM
Kd (HLA-A*32:07; [8]): 0.0119 µM
Kd (HLA-B*40:13; [8]): 0.0536 µM

Sequence: FVAATGRPL
Kd (HLA-C*12:03; [9]): 0.095 µM
Kd (HLA-C*03:03; [9]): ≤ 0.001 µM
Kd (HLA-B*15:42; [9]): ≥ 5 µM
Kd (HLA-B*45:06; [9]): ≥ 5 µM
Kd (HLA-C*14:02; [9]): 0.0302 µM

Sequence: YSFSRAYTL
Kd (HLA-C*05:01; [10]): ≥ 20 µM
Kd (HLA-C*08:02): ≥ 20 µM
Kd (HLA-C*07:02): 0.347 µM
Kd (HLA-B*15:42; [10]): ≥ 5 µM
Kd (HLA-B*83:01; [10]): ≥ 5 µM
Kd (HLA-A*68:23): 0.0093 µM
Kd (HLA-B*27:20; [10]): 0.0315 µM
Kd (HLA-B*39:01; [10]): 0.0039 µM
Kd (HLA-C*06:02 [4]): 0.0478 µM
Kd (HLA-B*45:06; [10]): ≥ 5 µM
Kd (HLA-C*14:02; [10]): 0.125 µM
Kd (HLA-A*32:15): 0.0237 µM
Kd (HLA-A*32:07; [10]): 0.165 µM
Kd (HLA-B*40:13; [10]): 0.0063 µM

Sequence: IAAPNMIAV
Kd (HLA-C*05:01; [11]): 2.17 µM
Kd (HLA-C*12:03; [11]): 0.002 µM
Kd (HLA-C*03:03; [11]): ≤ 0.001 µM
Kd (HLA-B*46:01; [11]): 0.578 µM

Sequence: RLDPRLAPV
Kd (HLA-C*03:03; source organism: Mycobacterium tuberculosis variant bovis BCG str. Pasteur 1173P2): ≥ 20 µM

Sequence: MVLSGTLAY
Kd (HLA-B*15:42; [12]): ≥ 5 µM
Kd (HLA-B*83:01; [12]): ≥ 5 µM
Kd (HLA-A*26:01; [12]): 0.506 µM
Kd (HLA-B*35:01): 0.0012 µM
Kd (HLA-B*45:06; [12]): ≥ 5 µM
Kd (HLA-C*14:02; [12]): 0.123 µM
